B1: 7287 (TCR)
alpha TRAV16 TRAJ17 CDR3: CALRSPAAGNKLTF
beta TRBV27 TRBJ2-5 CDR3: CASSFAEGTQYF
B2: 66 (TCR)
alpha TRAV21 TRAJ41 CDR3: CAVQSSGSGYALNF
beta TRBV5-5 TRBJ2-7 CDR3: CASTKGTDSYEQYF
B3: 317 (TCR)
alpha TRAV12-3 TRAJ33 CDR3: CAMRSNYQLIW
beta TRBV6-5 TRBJ2-7 CDR3: CASSYAQGEQYF
B4: 2722 (TCR)
alpha TRAV21 TRAJ45 CDR3: CAVRGADGLTF
beta TRBV6-6 TRBJ2-7 CDR3: CASTNRASDSYEQYF
B5: 11155 (TCR)
alpha TRAV16 TRAJ37 CDR3: CALNSNTGKLIF
beta TRBV27 TRBJ2-1 CDR3: CASSSFLLAGGGGNSNEQFF
B6: 297 (TCR)
alpha TRAV12-2 TRAJ33 CDR3: CAVSQGGVSNYQLIW
beta TRBV29-1 TRBJ2-7 CDR3: CSVFTGWPYEQYF
B7: 386 (TCR)
alpha TRAV21 TRAJ52 CDR3: CAVRPGRGTSYGKLTF
beta TRBV19 TRBJ2-3 CDR3: CASSMGAGGAADTQYF
B8: 3936 (TCR)
alpha TRAV12-3 TRAJ33 CDR3: CAMRSNYQLIW
beta TRBV27 TRBJ2-3 CDR3: CASSPSQGTQYF
B9: 41 (TCR)
alpha TRAV12-2 TRAJ53 CDR3: CAVGRGGGSNYKLTF
beta TRBV29-1 TRBJ2-7 CDR3: CSAHGGWPYEQYF
B10: 10813 (TCR)
alpha TRAV3 TRAJ45 CDR3: CAVRDSGGGADGLTF
beta TRBV29-1 TRBJ2-2 CDR3: CSVPGLVFPGELFF
B11: 2058 (TCR)
alpha TRAV39 TRAJ49 CDR3: CAEGNQFYF
beta TRBV7-9 TRBJ2-1 CDR3: CASSLALAGRNYNEQFF
B12: 225 (TCR)
alpha TRAV12-2 TRAJ41 CDR3: CAVGNSGYALNF
beta TRBV11-2 TRBJ2-1 CDR3: CASLEGPGNEQFF
B13: 841.2 (TCR)
alpha TRAV25 TRAJ38 CDR3: CAGPINAGNNRKLIW
beta TRBV6-5 TRBJ2-7 CDR3: CASSLDRVRGNSYEQYF
B14: 11151 (TCR)
alpha TRAV12-2 TRAJ53 CDR3: CAVNSGGSGGSNYKLTF
beta TRBV29-1 TRBJ2-7 CDR3: CSAQQGWPYEQYF
B15: 2997 (TCR)
alpha TRAV9-2 TRAJ9 CDR3: CALSALNTGGFKTIF
beta TRBV20-1 TRBJ1-1 CDR3: CSASGLTRDSPLNTEAFF
B16: 6254 (TCR)
alpha TRAV21 TRAJ10 CDR3: CAVGGGGGNKLTF
beta TRBV11-2 TRBJ1-2 CDR3: CASSLLWVGDYGYTF
B17: 11949 (TCR)
alpha TRAV35 TRAJ36 CDR3: CAGQLETGANNLFF
beta TRBV10-3 TRBJ2-3 CDR3: CAINPGTSGRWGTDTQYF
B18: 2123 (TCR)
alpha TRAV14/DV4 TRAJ43 CDR3: CAMRDLGDMRF
beta TRBV27 TRBJ1-2 CDR3: CASSFWDRRYGYTF
B19: 475 (TCR)
alpha TRAV3 TRAJ40 CDR3: CAVSGPTSGTYKYIF
beta TRBV5-5 TRBJ1-5 CDR3: CASSLWDGGNQPQHF
B20: 5226 (TCR)
alpha TRAV21 TRAJ49 CDR3: CAVRGNQFYF
beta TRBV6-2 TRBJ2-1 CDR3: CASSYVVVQGVPYNEQFF
B21: 4350 (TCR)
alpha TRAV29/DV5 TRAJ42 CDR3: CAASLNYGGSQGNLIF
beta TRBV19 TRBJ1-1 CDR3: CASSSKDITVTEAFF
B22: 8915 (TCR)
alpha TRAV29/DV5 TRAJ49 CDR3: CAAWSRGTGNQFYF
beta TRBV20-1 TRBJ2-1 CDR3: CSARDRWEGRTNEQFF
B23: 5458 (TCR)
alpha TRAV29/DV5 TRAJ47 CDR3: CAATGGNKLVF
beta TRBV5-5 TRBJ2-7 CDR3: CASSHPLGVSSYEQYF
B24: 1735 (TCR)
alpha TRAV21 TRAJ11 CDR3: CAVTRGGYSTLTF
beta TRBV12-3 TRBJ2-1 CDR3: CASSLGTGGIDEQFF
B25: 7094 (TCR)
alpha TRAV12-3 TRAJ33 CDR3: CAMRSNYQLIW
beta TRBV30 TRBJ2-7 CDR3: CAWRLQGAGEQYF
B26: 6808 (TCR)
alpha TRAV17 TRAJ45 CDR3: CATKRGADGLTF
beta TRBV6-5 TRBJ1-2 CDR3: CASSYGGDVYGYTF
B27: 4386 (TCR)
alpha TRAV14/DV4 TRAJ10 CDR3: CAKAGGGNKLTF
beta TRBV7-6 TRBJ2-1 CDR3: CASSLTTGQGPHNEQFF
B28: 11085.2 (TCR)
alpha TRAV2 TRAJ6 CDR3: CAVEDPAGGSYIPTF
beta TRBV20-1 TRBJ2-7 CDR3: CSARGATGDFYEQYF
B29: 6265 (TCR)
alpha TRAV30 TRAJ49 CDR3: CGTAPLTGNQFYF
beta TRBV18 TRBJ1-1 CDR3: CASSHSGTAYTEAFF
B30: 1361 (TCR)
alpha TRAV12-1 TRAJ4 CDR3: CVVTGFSGGYNKLIF
beta TRBV14 TRBJ1-4 CDR3: CASSLVRGGFEKLFF
B31: 509 (TCR)
alpha TRAV12-1 TRAJ36 CDR3: CVVTDLFF
beta TRBV27 TRBJ2-2 CDR3: CASSPRTGVAGELFF
B32: 832 (TCR)
alpha TRAV13-1 TRAJ6 CDR3: CAAGSSGGSYIPTF
beta TRBV7-7 TRBJ2-1 CDR3: CASSLEGHRGLYNEQFF
B33: 11870 (TCR)
alpha TRAV12-1 TRAJ9 CDR3: CVVNRGTGGFKTIF
beta TRBV27 TRBJ1-6 CDR3: CASMLASYNSPLHF
B34: 8483 (TCR)
alpha TRAV21 TRAJ20 CDR3: CAVYFRSNDYKLSF
beta TRBV20-1 TRBJ2-7 CDR3: CSATGTVNYEQYF
B35: 2495 (TCR)
alpha TRAV19 TRAJ23 CDR3: CALRIYNQGGKLIF
beta TRBV5-1 TRBJ2-1 CDR3: CASSTGLAGMSSYNEQFF
B36: 7156 (TCR)
alpha TRAV29/DV5 TRAJ49 CDR3: CAASGGNQFYF
beta TRBV5-5 TRBJ2-2 CDR3: CASSAPGGVDTGELFF
B37: 6548 (TCR)
alpha TRAV12-3 TRAJ33 CDR3: CASRSNYQLIW
beta TRBV6-1 TRBJ1-5 CDR3: CASSDAQAPQHF
B38: 201 (TCR)
alpha TRAV19 TRAJ4 CDR3: CALSLSGGYNKLIF
beta TRBV6-6 TRBJ2-7 CDR3: CASSQGVIDEQYF
B39: 11253 (TCR)
alpha TRAV21 TRAJ40 CDR3: CAVRGGFGSGTYKYIF
beta TRBV28 TRBJ1-2 CDR3: CASRTTRANYGYTF
B40: 7734 (TCR)
alpha TRAV21 TRAJ29 CDR3: CAVRAGNTPLVF
beta TRBV6-2 TRBJ1-1 CDR3: CASSYTTGTVIPNTEAFF
B41: 1650 (TCR)
alpha TRAV13-1 TRAJ9 CDR3: CAAPPGGFKTIF
beta TRBV28 TRBJ2-1 CDR3: CASTTSTGAYNEQFF
B42: 5245 (TCR)
alpha TRAV30 TRAJ34 CDR3: CGTEIRGKLIF
beta TRBV27 TRBJ1-5 CDR3: CASSLGFPNQPQHF
B43: 7894 (TCR)
alpha TRAV5 TRAJ39 CDR3: CAQNAGNMLTF
beta TRBV27 TRBJ1-1 CDR3: CASSLAPNTEAFF
B44: 11195 (TCR)
alpha TRAV19 TRAJ32 CDR3: CALRYGGATNKLIF
beta TRBV7-6 TRBJ1-2 CDR3: CASSLEGPYGYTF
B45: 545 (TCR)
alpha TRAV38-1 TRAJ23 CDR3: CALRGNQGGKLIF
beta TRBV7-9 TRBJ2-7 CDR3: CASSPDGMHEQYF
B46: 684 (TCR)
alpha TRAV38-1 TRAJ31 CDR3: CAFMKLGNNARLMF
beta TRBV10-3 TRBJ1-5 CDR3: CAISGPEINQPQHF
B47: 6319 (TCR)
alpha TRAV21 TRAJ22 CDR3: CAVKTSGSARQLTF
beta TRBV27 TRBJ2-3 CDR3: CASSSPPISVATDTQYF
B48: 8395 (TCR)
alpha TRAV21 TRAJ45 CDR3: CAGGGGADGLTF
beta TRBV6-6 TRBJ2-3 CDR3: CASSYPSPDTQYF
B49: 5469 (TCR)
alpha TRAV12-2 TRAJ53 CDR3: CAVNWGGGSNYKLTF
beta TRBV29-1 TRBJ2-7 CDR3: CSVGQGWPYEQYF
B50: 6844 (TCR)
alpha TRAV12-3 TRAJ33 CDR3: CAGRSNYQLIW
beta TRBV30 TRBJ2-7 CDR3: CAWSPSGSPLEQYF
B51: 718 (TCR)
alpha TRAV3 TRAJ45 CDR3: CAVRQTGGGADGLTF
beta TRBV29-1 TRBJ2-2 CDR3: CSVPGLVYPGELFF
B52: 5170 (TCR)
alpha TRAV12-3 TRAJ33 CDR3: CAMRSNYQLIW
beta TRBV6-1 TRBJ1-5 CDR3: CASSEAQGPQHF
B53: 3155 (TCR)
alpha TRAV12-3 TRAJ33 CDR3: CAMRSNYQLIW
beta TRBV6-5 TRBJ2-1 CDR3: CASSYAQGAQFF
B54: 6743 (TCR)
alpha TRAV5 TRAJ15 CDR3: CAGSRTGTALIF
beta TRBV27 TRBJ2-6 CDR3: CASSTGIVTGANVLTF
B55: 11751 (TCR)
alpha TRAV21 TRAJ49 CDR3: CAVRPPGNQFYF
beta TRBV6-4 TRBJ2-1 CDR3: CASSPVGTQGYNEQFF
B56: 4160 (TCR)
alpha TRAV35 TRAJ21 CDR3: CAGLYNFNKFYF
beta TRBV19 TRBJ1-1 CDR3: CASSTLRGDNRGTEAFF
B57: 10832 (TCR)
alpha TRAV12-2 TRAJ53 CDR3: CAVNPRGGGSNYKLTF
beta TRBV29-1 TRBJ2-7 CDR3: CSAQTAWPYEQYF
B58: 763 (TCR)
alpha TRAV19 TRAJ32 CDR3: CALRYGGATNKLIF
beta TRBV7-6 TRBJ1-2 CDR3: CASSLEGVGGYTF
B59: 5576.2 (TCR)
alpha TRAV12-3 TRAJ49 CDR3: CAMKRDQFYF
beta TRBV6-2 TRBJ2-7 CDR3: CASRTIDLLAGEYEQYF
B60: 7100 (TCR)
alpha TRAV21 TRAJ43 CDR3: CAVRGGDMRF
beta TRBV6-6 TRBJ2-7 CDR3: CASTNRGDISYEQYF
B61: 5251 (TCR)
alpha TRAV12-2 TRAJ53 CDR3: CAVNGGGGSNYKLTF
beta TRBV29-1 TRBJ2-7 CDR3: CSVGTGWPYEQYF

Molecular target: T1, A*01/LTD peptide on A*01/LTD (human)
T1 peptide: LTDEMIAQY
Test: activation reporter or marker

| Binder | binding result |
| --- | --- |
| B1 | recognises |
| B2 | recognises |
| B3 | recognises |
| B4 | recognises |
| B5 | recognises |
| B6 | recognises |
| B7 | recognises |
| B8 | recognises |
| B9 | recognises |
| B10 | recognises |
| B11 | recognises |
| B12 | recognises |
| B13 | recognises |
| B14 | recognises |
| B15 | recognises |
| B16 | recognises |
| B17 | recognises |
| B18 | no recognition |
| B19 | recognises |
| B20 | recognises |
| B21 | no recognition |

| Binder | binding result |
| --- | --- |
| B22 | recognises |
| B23 | recognises |
| B24 | recognises |
| B25 | recognises |
| B26 | recognises |
| B27 | recognises |
| B28 | recognises |
| B29 | recognises |
| B30 | recognises |
| B31 | recognises |
| B32 | recognises |
| B33 | recognises |
| B34 | recognises |
| B35 | recognises |
| B36 | recognises |
| B37 | recognises |
| B38 | recognises |
| B39 | recognises |
| B40 | recognises |
| B41 | recognises |
| B42 | recognises |

| Binder | binding result |
| --- | --- |
| B43 | recognises |
| B44 | recognises |
| B45 | recognises |
| B46 | recognises |
| B47 | recognises |
| B48 | recognises |
| B49 | recognises |
| B50 | recognises |
| B51 | recognises |
| B52 | recognises |
| B53 | recognises |
| B54 | recognises |
| B55 | recognises |
| B56 | recognises |
| B57 | recognises |
| B58 | recognises |
| B59 | recognises |
| B60 | recognises |
| B61 | recognises |

— doi:10.1101/2024.10.30.620795 (2024)
